Article PMC7096706

Target: Trypanosoma cruzi farnesyl pyrophosphate synthase (Trypanosoma cruzi)
Assay: dynamic light scattering; stock solution of tcFPPS thawed from -80°C directly before analysis; Zetasizer Ultra; distribution by volume analysis; monomer to dimer

**Q.** For “Trypanosoma cruzi farnesyl pyrophosphate synthase (enzyme)”, which stoichiometry N is on record?
**A.** Its stoichiometry N is 2.
